{"source": "patent US20230321260A1", "molecular_target": "MBP-RumTrunkD9NTag", "assay": "isopeptide coupling to RumTrunkD9NTag-MBP, 5 uM each, 37 C, SDS gel (time given as 50 minutes and as 3 h)", "data": [{"substance": "SpyCatcher-VLP", "values": [{"measurement": "Percentage reconstitution", "result": 11.9, "unit": "%"}]}]}
